In publication PMC9287160 one finds response data, which are given here for five molecules.

B1: nanobody hCD11bNb1 (His-tagged) N101A (protein)
chain: QVQLVETGGGLVQAGGSLRLSCAASGNINSFNAMGWFRQAPGKQRELVAAITFGGRTNYADSVKGRFTISRDNTKGSVYLQMNSLKPEDTAVYYCAASEANLLTGVWHYWGRGTQVTVSS
B2: nanobody hCD11bNb1 (His-tagged) F32A (protein)
chain: QVQLVETGGGLVQAGGSLRLSCAASGNINSANAMGWFRQAPGKQRELVAAITFGGRTNYADSVKGRFTISRDNTKGSVYLQMNSLKPEDTAVYYCAASENNLLTGVWHYWGRGTQVTVSS
B3: nanobody hCD11bNb1 (His-tagged) N30A (protein)
chain: QVQLVETGGGLVQAGGSLRLSCAASGNIASFNAMGWFRQAPGKQRELVAAITFGGRTNYADSVKGRFTISRDNTKGSVYLQMNSLKPEDTAVYYCAASENNLLTGVWHYWGRGTQVTVSS
B4: nanobody hCD11bNb1 (His-tagged) I29A (protein)
chain: QVQLVETGGGLVQAGGSLRLSCAASGNANSFNAMGWFRQAPGKQRELVAAITFGGRTNYADSVKGRFTISRDNTKGSVYLQMNSLKPEDTAVYYCAASENNLLTGVWHYWGRGTQVTVSS
B5: nanobody hCD11bNb1 (His-tagged) F54A (protein)
chain: QVQLVETGGGLVQAGGSLRLSCAASGNINSFNAMGWFRQAPGKQRELVAAITAGGRTNYADSVKGRFTISRDNTKGSVYLQMNSLKPEDTAVYYCAASENNLLTGVWHYWGRGTQVTVSS

For the assay, the target named is human integrin αMβ2 headpiece fragment, P11215;P05107. The assay is described as follows: BLI competition assay. The settings on record: chain shown with the change; 20 nM αMβ2 HP preincubated with 10-fold molar excess of nanobody variant; immobilized biotinylated avi-tagged WT hCD11bNb1; signal is HP binding to the sensor …; parent: est. 0.31; read off a plot.
In the case of B1, the response was found to be 1.2 nm.

Take B2: the response came out at 1.1 nm.

On to B3, for which the response amounted to 0.98 nm.

For the molecule B4, the response turned out to be 0.45 nm.

In the case of B5, the response amounted to 1.2 nm.
